Experimental data as given in patent CN117003876A (KAIKA BIO TECH SHANGHAI CO LTD, dated 2023).

B1: 1B5B10 (antibody, mouse IgG2b, kappa, V domains shown)
VH: DVQLQESGPGLVKPSQSLSLTCTVTGYSITSDYAWNWIRQFPGNKLEWMGYIDNSGSTNYNPSLRSRISITRDTSKNQFFLQLNSVTTEDTATYYCALNDYHYVMDYWGQGTSVTVSS
VL: DIQMTQSPASLSASVGETVTITCRPSENIYSYLAWYQQKQGKSPQLLVYSAKTLAEGVPLRFSGSYSGTHFSLRINSLQPEDFGSYYCQHHYGSPLTFGSGTKLELKR
notes: also called 1B5B10重组抗体; 鼠单抗1B5B10
B2: CXCR4膜蛋白 on Hela细胞 (receptor, UniProt P61073 1-352, looked up)
chain: MEGISIYTSDNYTEEMGSGDYDSMKEPCFREENANFNKIFLPTIYSIIFLTGIVGNGLVILVMGYQKKLRSMTDKYRLHLSVADLLFVITLPFWAVDAVANWYFGNFLCKAVHVIYTVNLYSSVLILAFISLDRYLAIVHATNSQRPRKLLAEKVVYVGVWIPALLLTIPDFIFANVSEADDRYICDRFYPNDLWVVVFQFQHIMVGLILPGIVILSCYCIIISKLSHSKGHQKRKALKTTVILILAFFACWLPYYIGISIDSFILLEIIKQGCEFENTVHKWISITEALAFFHCCLNPILYAFLGAKFKTSAQHALTSVSRGSSLKILSKGKRGGHSSVSTESESSSFHSS
notes: whole, on cells; also called Hela细胞过表达CXCR4膜蛋白; Hela细胞膜蛋白CXCR4

Legend:
CXCR4膜蛋白 on Hela细胞 = molecular target: B2; experiment: FACS on Hela cells, recombinant antibody
[1] = molecular target: T1, 生物素标记SDF-1a配体(SKU# RBP48061, Reprokine) (UniProt P48061-2 22-89, biotin-labelled (site not stated)); experiment: FACS on Hela cells, 0.1uM biotin-SDF-1a, SA-FITC
T1 construct: Bought biotinylated ligand; also called SDF-1α; CXCL12

Row | Binder | binding result (CXCR4膜蛋白 on Hela细胞) | binding result [1]
1 | B1 | binds | 
2 | B2 |  | binds
